Two molecules from PMC8092709 (Journal of Virology, 2021) can be followed below.

In experiment [1] the target is human aminopeptidase N (hAPN), residues 66 to 967 (human) (UniProt P15144). Briefly: SPR.
Experiment [2] deals with T1, HCoV-229E S glycoprotein ectodomain trimer (S-trimer) (HCoV-229E, UniProt P15423 16-1116).
T1 sequence: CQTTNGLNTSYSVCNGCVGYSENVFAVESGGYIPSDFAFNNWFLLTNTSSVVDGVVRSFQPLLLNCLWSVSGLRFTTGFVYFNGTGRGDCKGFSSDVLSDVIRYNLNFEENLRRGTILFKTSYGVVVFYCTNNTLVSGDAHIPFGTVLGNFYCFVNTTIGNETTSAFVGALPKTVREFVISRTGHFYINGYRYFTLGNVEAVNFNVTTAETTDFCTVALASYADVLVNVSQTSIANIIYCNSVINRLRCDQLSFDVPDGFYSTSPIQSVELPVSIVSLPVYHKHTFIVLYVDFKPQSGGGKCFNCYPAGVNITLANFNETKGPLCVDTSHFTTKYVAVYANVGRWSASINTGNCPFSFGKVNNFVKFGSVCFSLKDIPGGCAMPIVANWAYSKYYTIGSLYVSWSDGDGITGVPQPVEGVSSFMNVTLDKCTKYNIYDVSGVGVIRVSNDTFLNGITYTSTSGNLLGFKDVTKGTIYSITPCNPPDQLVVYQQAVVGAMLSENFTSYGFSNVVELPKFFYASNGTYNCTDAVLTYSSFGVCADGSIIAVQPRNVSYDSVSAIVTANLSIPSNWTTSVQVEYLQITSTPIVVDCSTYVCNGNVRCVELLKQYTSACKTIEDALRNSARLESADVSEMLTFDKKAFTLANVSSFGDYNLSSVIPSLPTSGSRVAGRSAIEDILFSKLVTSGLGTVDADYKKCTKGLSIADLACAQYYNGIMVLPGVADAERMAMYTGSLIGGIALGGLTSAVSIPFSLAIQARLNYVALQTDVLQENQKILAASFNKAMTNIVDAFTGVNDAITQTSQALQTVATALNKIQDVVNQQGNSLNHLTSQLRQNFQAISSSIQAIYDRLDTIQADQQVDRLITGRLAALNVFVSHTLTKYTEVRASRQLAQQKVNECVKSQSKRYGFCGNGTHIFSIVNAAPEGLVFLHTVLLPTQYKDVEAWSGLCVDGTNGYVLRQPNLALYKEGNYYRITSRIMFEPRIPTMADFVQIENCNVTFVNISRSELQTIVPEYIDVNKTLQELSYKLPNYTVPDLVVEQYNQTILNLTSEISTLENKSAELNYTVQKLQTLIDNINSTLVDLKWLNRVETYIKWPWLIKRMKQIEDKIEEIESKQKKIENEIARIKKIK
Kind of experiment: SPR. (In general: SPR reads the build-up and loss of mass on a sensor chip optically.)

As to “HCoV-229E NTD-deficient S-trimer (S-trimer/ΔNTD) (from UniProt P15423 16-1116) (domain or fragment)”, in experiment [1], the Kd (usually a measure of binding affinity in units of concentration) was 2.12 nM; the koff (usually a measure of how fast the partners let go of each other) turned out to be 4.1e-05 s⁻¹; the kon (in general, the rate constant with which the complex forms) is 19400 M⁻¹ s⁻¹.

B1: human aminopeptidase N (hAPN), residues 66 to 967 (receptor)
chain: DQSKAWNRYRLPNTLKPDSYRVTLRPYLTPNDRGLYVFKGSSTVRFTCKEATDVIIIHSKKLNYTLSQGHRVVLRGVGGSQPPDIDKTELVEPTEYLVVHLKGSLVKDSQYEMDSEFEGELADDLAGFYRSEYMEGNVRKVVATTQMQAADARKSFPCFDEPAMKAEFNITLIHPKDLTALSNMLPKGPSTPLPEDPNWNVTEFHTTPKMSTYLLAFIVSEFDYVEKQASNGVLIRIWARPSAIAAGHGDYALNVTGPILNFFAGHYDTPYPLPKSDQIGLPDFNAGAMENWGLVTYRENSLLFDPLSSSSSNKERVVTVIAHELAHQWFGNLVTIEWWNDLWLNEGFASYVEYLGADYAEPTWNLKDLMVLNDVYRVMAVDALASSHPLSTPASEINTPAQISELFDAISYSKGASVLRMLSSFLSEDVFKQGLASYLHTFAYQNTIYLNLWDHLQEAVNNRSIQLPTTVRDIMNRWTLQMGFPVITVDTSTGTLSQEHFLLDPDSNVTRPSEFNYVWIVPITSIRDGRQQQDYWLIDVRAQNDLFSTSGNEWVLLNLNVTGYYRVNYDEENWRKIQTQLQRDHSAIPVINRAQIINDAFNLASAHKVPVTLALNNTLFLIEERQYMPWEAALSSLSYFKLMFDRSEVYGPMKNYLKKQVTPLFIHFRNNTNNWREIPENLMDQYSEVNAISTACSNGVPECEEMVSGLFKQWMENPNNNPIHPNLRSTVYCNAIAQGGEEEWDFAWEQFRNATLVNEADKLRAALACSKELWILNRYLSYTLNPDLIRKQDATSTIISITNNVIGQGLVWDFVQSNWKKLFNDYGGGSFSFSNLIQAVTRRFSTEYELQQLEQFKKDNEETGFGSGTRALEQALEKTKANIKWVKENKEVVLQWFTENSK
In experiment [2], B1 had a Kd of 3.29 nM, a dissociation rate constant (koff) of 0.000121 s⁻¹ and an on-rate (kon) of 36700 M⁻¹ s⁻¹.
